One block for each molecule: values may come before it.
B1: recombinant Kap120-6xHis (natural protein, S. cerevisiae, UniProt Q02932 1-1032, looked up)
chain: MASSLNELNLVQVLEQASNPQHIRSDVQKLAEQQLRQWETQAGFHYLLQSIYLNLSNSLQIRWLAVIQFKNGVDKYWRSTRINAIPKDEKASIRGRLFEMIDEQNNQLCIQNAQASARIARLDFPVEWPTLFEDLENLLNDEIIRKDSVKIYNILMHINQIVKVLGTARIGRCRPAMQSKVPLILPLIVRIYLQSFEEWTTSSNLNYEDLSSLQVSYLALKVLRRIICEGYDRPQTDQSVCDFIKLSVSHFEMLISNHENFKKFDIYEKFIKCLGKLYFNLVTGSPANFILLPCSTQILITYTRLIFDKAPKVYRENSDVTGDFWEQTAIRGLLILKRVINFIHKKGAITLKARSDKLTIDASINKINTEFLNENLITRLVDTLMEWYLRLRPTELENWFMDPEEWINEQMATSYEYQIRPCAENVFQDLMNTFSELLVPYLLKKIENDASKLSNSLDDFLRKDAIYASFQLSASAVSEMVDFDRLLIQVFLPEATNTNISGDELRIIRRRVALIINEWSTVKCSEESKSLCYKLFTNFLTDEDDKVVLLTTVQTVRTMVDDWNFNKDTFQPFLTENVHLLLRKILPSVSLTETRLYVLNTLSDIIIQTKPLISRDLLVEILQIIPNLWEIATNNASEAILANALLRLLRNLVSSLGSQSHLTWDIAIPVVALACDPSSMQYQLLSEDGYELWGMLLQNFSSHDQEFDDKFVELVPFLKYGIETHTEILPTLLEIIKSYALILNPVDFFSNNTFQDIFKQMSKYLLKLREDSFQLVLEIWEILILSNESDYENLLLQKFYETGVLSALFDAIFLEEAPSSYLCSQIIQIIARISYVNPDALMTFLATYHDNLPTSNENARMPESIRKIVSKDQTYDSVVNKLLTGWIVCFRDIFDPKFKKVHILGISSLLRTGLVPILTEFSSIASLWIEMLEEINETNRGDCEKYHLNDIVTEQSIAFHPLTAEQLRYHQLCKNNDPVHNISLKDFISQSMEYLESHLGVERYQEFLKTINPSLLENLQMFLSIQPQEARP

Legend:
recombinant Kap120-6xHis = target: B1; experiment: pull-down
[1] = target: FLAG-tagged Xrn1 (wild type) (S. cerevisiae, UniProt P22147 1-1528); experiment: pull-down
FLAG-tagged Xrn1 (wild type), sequence (P22147 whole entry): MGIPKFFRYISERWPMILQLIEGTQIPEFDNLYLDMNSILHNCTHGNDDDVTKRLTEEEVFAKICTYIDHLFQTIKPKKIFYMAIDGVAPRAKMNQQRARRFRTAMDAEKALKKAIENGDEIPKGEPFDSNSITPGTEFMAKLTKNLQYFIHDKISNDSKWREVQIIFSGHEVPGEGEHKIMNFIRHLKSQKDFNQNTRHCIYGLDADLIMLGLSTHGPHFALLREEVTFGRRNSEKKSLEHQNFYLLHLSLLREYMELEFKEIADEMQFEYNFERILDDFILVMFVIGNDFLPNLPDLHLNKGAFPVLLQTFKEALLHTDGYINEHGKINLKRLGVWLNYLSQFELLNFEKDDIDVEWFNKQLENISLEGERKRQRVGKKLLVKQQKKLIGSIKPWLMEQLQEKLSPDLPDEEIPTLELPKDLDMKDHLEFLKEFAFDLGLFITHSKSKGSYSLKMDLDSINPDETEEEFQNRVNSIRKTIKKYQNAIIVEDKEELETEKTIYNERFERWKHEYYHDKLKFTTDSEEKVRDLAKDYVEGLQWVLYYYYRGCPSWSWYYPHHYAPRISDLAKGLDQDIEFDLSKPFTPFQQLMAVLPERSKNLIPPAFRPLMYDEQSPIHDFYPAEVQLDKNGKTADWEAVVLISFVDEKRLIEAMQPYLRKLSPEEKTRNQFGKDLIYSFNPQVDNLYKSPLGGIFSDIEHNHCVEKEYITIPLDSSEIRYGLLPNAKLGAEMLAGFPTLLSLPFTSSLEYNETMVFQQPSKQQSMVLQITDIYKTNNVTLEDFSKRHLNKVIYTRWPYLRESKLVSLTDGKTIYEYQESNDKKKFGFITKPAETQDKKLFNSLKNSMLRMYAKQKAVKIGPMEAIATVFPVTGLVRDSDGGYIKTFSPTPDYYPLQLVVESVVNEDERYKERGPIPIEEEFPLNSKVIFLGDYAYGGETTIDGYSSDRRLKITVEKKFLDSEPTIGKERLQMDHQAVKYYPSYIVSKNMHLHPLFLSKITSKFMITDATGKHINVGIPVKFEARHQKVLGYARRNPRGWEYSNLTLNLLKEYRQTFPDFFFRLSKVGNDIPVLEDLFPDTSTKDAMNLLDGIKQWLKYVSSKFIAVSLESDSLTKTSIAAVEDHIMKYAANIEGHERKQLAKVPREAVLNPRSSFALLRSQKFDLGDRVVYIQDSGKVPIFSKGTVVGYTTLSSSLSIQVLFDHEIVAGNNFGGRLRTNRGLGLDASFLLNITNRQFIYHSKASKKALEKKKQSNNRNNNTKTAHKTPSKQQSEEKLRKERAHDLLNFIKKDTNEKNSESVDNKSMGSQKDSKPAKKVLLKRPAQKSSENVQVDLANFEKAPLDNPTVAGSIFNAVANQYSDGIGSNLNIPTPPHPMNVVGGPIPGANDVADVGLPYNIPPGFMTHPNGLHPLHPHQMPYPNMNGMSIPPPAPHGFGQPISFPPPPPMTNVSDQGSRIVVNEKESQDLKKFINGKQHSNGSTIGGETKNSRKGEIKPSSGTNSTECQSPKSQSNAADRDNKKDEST

TAP-tagged Kap120 = target: T1, TAP-tagged Kap120 (S. cerevisiae, UniProt Q02932 1-1032); experiment: co-IP
T1 sequence (looked up): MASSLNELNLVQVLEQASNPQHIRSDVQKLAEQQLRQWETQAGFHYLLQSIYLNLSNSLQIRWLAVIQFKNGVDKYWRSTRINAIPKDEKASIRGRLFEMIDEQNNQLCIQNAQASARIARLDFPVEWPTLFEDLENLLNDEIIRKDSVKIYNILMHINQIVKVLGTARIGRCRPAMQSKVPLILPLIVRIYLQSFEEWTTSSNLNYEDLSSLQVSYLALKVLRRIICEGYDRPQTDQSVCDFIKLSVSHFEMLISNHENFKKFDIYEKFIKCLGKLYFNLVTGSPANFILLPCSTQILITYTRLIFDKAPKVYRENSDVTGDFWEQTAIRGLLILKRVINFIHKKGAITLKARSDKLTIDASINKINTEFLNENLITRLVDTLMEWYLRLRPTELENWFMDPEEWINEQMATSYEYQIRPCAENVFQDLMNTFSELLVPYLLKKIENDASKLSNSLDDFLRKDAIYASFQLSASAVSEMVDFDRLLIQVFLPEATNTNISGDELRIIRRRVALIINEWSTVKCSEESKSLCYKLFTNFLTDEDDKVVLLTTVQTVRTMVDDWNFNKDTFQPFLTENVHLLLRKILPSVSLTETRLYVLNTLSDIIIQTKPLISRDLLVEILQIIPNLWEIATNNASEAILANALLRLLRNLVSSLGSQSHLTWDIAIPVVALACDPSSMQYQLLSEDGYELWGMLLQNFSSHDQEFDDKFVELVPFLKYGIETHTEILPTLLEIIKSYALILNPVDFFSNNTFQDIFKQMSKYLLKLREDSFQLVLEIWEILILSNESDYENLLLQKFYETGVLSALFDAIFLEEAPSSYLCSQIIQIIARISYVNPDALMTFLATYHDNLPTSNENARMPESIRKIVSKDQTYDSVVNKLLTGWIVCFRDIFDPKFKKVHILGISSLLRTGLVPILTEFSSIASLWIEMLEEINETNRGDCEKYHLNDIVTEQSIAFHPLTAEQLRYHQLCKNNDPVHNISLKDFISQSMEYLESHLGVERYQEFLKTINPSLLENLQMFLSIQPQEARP

Molecule: FLAG-tagged Xrn1^ΔNLS1/2 (from UniProt P22147 1-1528) (enzyme)
fold weaker than Xrn1^WT-Kap120 (recombinant Kap120-6xHis): 4.5 fold

Molecule: B1
binding result [1]: binds

B2: Dhh1 (natural protein, S. cerevisiae (endogenous in yeast), UniProt P39517 1-506, looked up)
chain: MGSINNNFNTNNNSNTDLDRDWKTALNIPKKDTRPQTDDVLNTKGNTFEDFYLKRELLMGIFEAGFEKPSPIQEEAIPVAITGRDILARAKNGTGKTAAFVIPTLEKVKPKLNKIQALIMVPTRELALQTSQVVRTLGKHCGISCMVTTGGTNLRDDILRLNETVHILVGTPGRVLDLASRKVADLSDCSLFIMDEADKMLSRDFKTIIEQILSFLPPTHQSLLFSATFPLTVKEFMVKHLHKPYEINLMEELTLKGITQYYAFVEERQKLHCLNTLFSKLQINQAIIFCNSTNRVELLAKKITDLGYSCYYSHARMKQQERNKVFHEFRQGKVRTLVCSDLLTRGIDIQAVNVVINFDFPKTAETYLHRIGRSGRFGHLGLAINLINWNDRFNLYKIEQELGTEIAAIPATIDKSLYVAENDETVPVPFPIEQQSYHQQAIPQQQLPSQQQFAIPPQQHHPQFMVPPSHQQQQAYPPPQMPSQQGYPPQQEHFMAMPPGQSQPQY
fold reduction of the co-IP in Xrn1^ΔNLS1/2 cells against WT cells (TAP-tagged Kap120): ~5 fold

Further lines, results first:

fold reduction of the co-IP in Xrn1^ΔNLS1/2 cells against WT cells (TAP-tagged Kap120): ~5 fold
B3: Pat1 (natural protein, S. cerevisiae (endogenous in yeast), UniProt P25644 1-796, looked up)
chain: MSFFGLENSGNARDGPLDFEESYKGYGEHELEENDYLNDETFGDNVQVGTDFDFGNPHSSGSSGNAIGGNGVGATARSYVAATAEGISGPRTDGTAAAGPLDLKPMESLWSTAPPPAMAPSPQSTMAPAPAPQQMAPLQPILSMQDLERQQRQMQQQFMNFHAMGHPQGLPQGPPQQQFPMQPASGQPGPSQFAPPPPPPGVNVNMNQMPMGPVQVPVQASPSPIGMSNTPSPGPVVGATKMPLQSGRRSKRDLSPEEQRRLQIRHAKVEKILKYSGLMTPRDKDFITRYQLSQIVTEDPYNEDFYFQVYKIIQRGGITSESNKGLIARAYLEHSGHRLGGRYKRTDIALQRMQSQVEKAVTVAKERPSKLKDQQAAAGNSSQDNKQANTVLGKISSTLNSKNPRRQLQIPRQQPSDPDALKDVTDSLTNVDLASSGSSSTGSSAAAVASKQRRRSSYAFNNGNGATNLNKSGGKKFILELIETVYEEILDLEANLRNGQQTDSTAMWEALHIDDSSYDVNPFISMLSFDKGIKIMPRIFNFLDKQQKLKILQKIFNELSHLQIIILSSYKTTPKPTLTQLKKVDLFQMIILKIIVSFLSNNSNFIEIMGLLLQLIRNNNVSFLTTSKIGLNLITILISRAALIKQDSSRSNILSSPEISTWNEIYDKLFTSLESKIQLIFPPREYNDHIMRLQNDKFMDEAYIWQFLASLALSGKLNHQRIIIDEVRDEIFATINEAETLQKKEKELSVLPQRSQELDTELKSIIYNKEKLYQDLNLFLNVMGLVYRDGEISELK

binding result (recombinant Kap120-6xHis): binds
B4: Tail-GFP (Xrn1 Tail, amino acids 351-521, fused to GFP) (domain or fragment, S. cerevisiae, UniProt P22147 351-521, looked up)
chain: EKDDIDVEWFNKQLENISLEGERKRQRVGKKLLVKQQKKLIGSIKPWLMEQLQEKLSPDLPDEEIPTLELPKDLDMKDHLEFLKEFAFDLGLFITHSKSKGSYSLKMDLDSINPDETEEEFQNRVNSIRKTIKKYQNAIIVEDKEELETEKTIYNERFERWKHEYYHDKLK

Source: paper doi:10.1101/2021.04.01.437949 (bioRxiv, 2021)
